Measured values from the nanobody polyreactivity screen of Harvey et al. (2022).

Experiment: yeast display, Sf9 membrane polyspecificity reagent, FACS + sequencing; frameworks hold sequencing errors
Summary of the method: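 Polyreactivity labels are assigned by the sorting gate from which each nanobody was recovered. The gates were low and high (top ~1%), set on anti-HA fluorescence for expression and streptavidin fluorescence for reagent binding. Before sorting, galactose-induced (36–48 hours) yeast display cells were stained for 1 hour at 4 °C with 10% biotinylated, detergent-solubilized Sf9 membrane reagent.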
In the case of “QVQLVESGGGLVQAGGSLRLSCAASGNTFEFYAMGWYRQAPGKERELVAAISASGGRTYYADSVKGRFTISRDNAKNTVYLQMNSLKPEDTAVYYCAAVRKSTRFDYWGQGTQVTVSS”, the “polyreactivity (PSR sort gate)” value was “high polyreactivity”. With “QVQLVESGGGLVQAGGSLRLSCAASGRTYTRYALGWYRQAPGKERELVAAISGGGGSTYYADSVKGRFTISRDNAKNTVYLQMNSLKPEDTAVYYCNAAARGSSFDYWGQGTQVTVSS” the “polyreactivity (PSR sort gate)” value was “low polyreactivity”. In the case of “QVQLVESGGGLVQAGGSLRLSCAASGSTFARYAMGWYRHAPGKETELVAGIWNTGRTYYADSVKGRFTISRDNAKNTVYLQMNSLKPEDTAVYYCAALYNSPNVTYYYWGQGTQVTVSS”, the “polyreactivity (PSR sort gate)” value was “high polyreactivity”. With “QVQLVESGGGLVQAGGRLRLSCAASGSTLSANAMGWYSPAPGKERELVAAISRRSGGTYYADSVKGRFTISRDNAKNSVYLQMNSLKPEDTAVYYCIKVLKDPHTWGWVDYDYCGQGTQVTVSS” the “polyreactivity (PSR sort gate)” value was “high polyreactivity”. With “QVQLEESGGGLVQAGGSLRISSAASGSTLGSNAMGWYRQAPGKEMELVAAITWSGGTTYYADSVKGRFTIARDNPKNTVSLQMNSLKPEDTAVYYCATGQSVIYRYEYWGQGTQVTVSS” the “polyreactivity (PSR sort gate)” value was “low polyreactivity”. In the case of “QVQLVESGGGLVQAGGSLRLSCAASGRTFGQYAMGWYRQAPGKERELVAAISTRGGSTYYADSVKGRFTISRDNAKNTVYLQLNSLKPEDTAVYYCAARQGWFAGYEYWGQGTQVTVSS”, the “polyreactivity (PSR sort gate)” value was “low polyreactivity”. With “QVQLVESGGGLVQAGGSLRLSCAASLRIFYSNAMGWSRQAPGKERELVAAISSSGGITYYADSVKGRFTISRDNAKNTVYLQMNSLKPEDTAVYYCAVDSRHYIRAFDHWGQGTQVTVSS” the “polyreactivity (PSR sort gate)” value was “low polyreactivity”. With “QVQLVESGGGLVQAGGSLRLSCAASGFTFWYYDMGWYRQAPGKERELVAAISRSGTSTYYADSVKGRFTISRDNAKNTVYLQMNSLKPEDTAVYYCNKVRNTRSYDYWGQGTQVTVSS” the “polyreactivity (PSR sort gate)” value was “high polyreactivity”. In the case of “QVQLVESGGGLVQAGGSLRLSCAASGRIFPRYAMGWYRQAPGKERELVATISSGGSTYYADSVKGRFTISRDNAKNTVYLQMNSLKPEDTAVYYCAARKRPYTVINGMDYCGQGTQVTVSS”, the “polyreactivity (PSR sort gate)” value was “low polyreactivity”. In the case of “QVQLVESGGGLVQAGGSLRLSCAASGRTFSINAMGWYRQAPGKERELVASISSRGTRTNYADSVKGRFTISRDNAKNTVYLQMNSLKPEDTAVYYCAADRYYPYYSAWREYEYWGQGTQVTVSS”, the “polyreactivity (PSR sort gate)” value was “high polyreactivity”. For “QVQLVESGGGLVQAGGSLRLSCAASGFTFAGNAMGWDRPAPGKERELVAGISRRGGNTYYADSVKGRFTISRDTAKNTVYLQMNRLKPEDTAVYYCARYSSSYWGQGTQVTVSS”, the “polyreactivity (PSR sort gate)” value was “high polyreactivity”. For “QVQLVESGGGLVQAGGSLRLSCAASGSIFGGYTMGWYRQAPGKERELVAAISRRGGNTYYADSVKGRFTISRDYAKNTVYLQMNSLKPDDTAVYFCAKRYASTSGYWGQGTQVTVSS”, the “polyreactivity (PSR sort gate)” value was “high polyreactivity”. In the case of “QVQLVESGGGLVQAGGSLRLSCADSGFIFTPYTMGWYRQAPGKERELVAAITDGSSTYYADSVKGRFTISRDNAKYTVYLQINSLKPEDTAVYYCNADGKPPYISWLYDYWGQGTQVTVSS”, the “polyreactivity (PSR sort gate)” value was “low polyreactivity”. In the case of “QVQLVESGGGLVQAGGSLRLSCAASGITFRYYVMGWYRQAPGKERELVASISWGGGSTYYADSVKGRFTISRDNAKNTVYLQMNSLKPEDTAVYYCAARVPRPSYRGMNYWGQGTQVTVSS”, the “polyreactivity (PSR sort gate)” value was “high polyreactivity”. In the case of “QVQLVESGGGLVQAGGSLRLSCAASGFIFTGNVMGWYRQAPGKERELVAAIRWSGGRTYYADSVKGRFTISRDNAKNTVYLQMNSLKPEDTAVYYCNALGRVQGYKPGGLDYWGQGTQVTVSS”, the “polyreactivity (PSR sort gate)” value was “high polyreactivity”. For “QVQLVESGGGLVQAGGSLRLSCAASGSTFNDYVMGWYRKAPGKERELVAAISRSGGSTYYADSVKGRFTISRDNAKNTVYIQMNSLKPEDTAFYYCNSDVGYWWGYYGYDYWGQGTQVTVSS”, the “polyreactivity (PSR sort gate)” value was “high polyreactivity”. For “QVQLVDSGGVLVQAGGSLRLSCAASGFTFRDYAMGWYRQAPGKERELVAAISRSGDSTYYADSVKGRFTISRDNAKNTVYLQMNSLKPEDTAVYYYAAKRRYTTYDYWGQGTQVTVSS”, the “polyreactivity (PSR sort gate)” value was “high polyreactivity”. In the case of “QVQLVESGRGLVQAGGSLRISCAASGFIFSKYAMGWYRQAPGKERELVAAISYSGGSTYYADSVKGRFTISRDNAKNTVYLQMNSLKPEDTAVYYCAAEGYGGYEHWGQGTQVTVSS”, the “polyreactivity (PSR sort gate)” value was “low polyreactivity”. For “QVQLVESGGGLVQAGGSLRLSCAASGFIFSSYAKGWYRQAPGKETELVAAITSGGSTNYADSVKGRFTISRDNAKNTVYLQMNSLYPEDTAVYYCATVPGGSWFFHWWSTGGDDEYWGQGTQVTVSS”, the “polyreactivity (PSR sort gate)” value was “low polyreactivity”. In the case of “QVQLVESGGGLVQAGGSLRLSCAASGLIIYYYAMGWYRQAPGKERELVAAISINGGSTYYADSVKGRFTISRDNAKNTVYLQMNSLIPEDTAVYYCAAFRRRMEYWGQGTQVTVSS”, the “polyreactivity (PSR sort gate)” value was “high polyreactivity”. With “QVQLVESGGGLVQAGGSLRLSCAASGSTFRYYGMGWYRQAPGKERELVAAISNGDSTNYADSVKGRFTISRDNAKNTVYLQMNSLKPEDTAVYYCATERYSYRVYGGITTFEYWGQGSQVTVSS” the “polyreactivity (PSR sort gate)” value was “high polyreactivity”. With “QVQLVESGGGVVQAGGSLSLSCAASGNTFPVYAMGWYRQASAKERELVATITSGGSTNYADSVKGRFTISRDNAKNTVYLQMNSLKPEDTAVYYCARRAVYSKRRYDYWGQGTQVTVSS” the “polyreactivity (PSR sort gate)” value was “low polyreactivity”. In the case of “QVQLVESGGGLVQAGGSLRLSCAASGSIFGYYAMGWYRQAPGKERELVASITSDTSTNYADSVKGRFTISRDNAQNTVYLQMNSLKPEDTAVYYCNARIAKWKRGYSSTFDYWGQGTQVTVSS”, the “polyreactivity (PSR sort gate)” value was “low polyreactivity”. In the case of “QVQLVESGGGLVQAGGSLRLSCAASGGIFYSYAMGWYRQAPGKERELVAAITWIGGSTYYADSVKGRFTISRDNAKNTVYLQMNSLKPEDTAVYYCAAEILWGGYDYWGQGTQVTVSS”, the “polyreactivity (PSR sort gate)” value was “low polyreactivity”. In the case of “QVQLVESGGGLVQAGGSLRLSCAASGRIFAVYAMGWYRQAPGKERELVAAISWSGGRTYYADSVKGRFTISRDNAKNTVYLQMNSLKPEDTAVYYCNRTPTGSYLYGMDYWGQGTQVTVSS”, the “polyreactivity (PSR sort gate)” value was “high polyreactivity”. For “QVQLVESGGGLVQAGGSLRLSCAASGFIIKSYAMGWYRQAPGKERELVAAISYTGSITYYADSVKGRFTISRDNAKNTVYLQMNSLKPEDTAVYYCAVGRYADQHDYWGQGTQVTVSS”, the “polyreactivity (PSR sort gate)” value was “high polyreactivity”. In the case of “QVQLVETGGGLVQARGSLRLSSAASGFIFDENAMGWYRQAPGKERELVAAITSGGGSTYYADSVKGRFTISRDNAKNTVYFQMNSQNPEDTAVYYCNAVPTQHDEFDYWGQGTQVTVSS”, the “polyreactivity (PSR sort gate)” value was “low polyreactivity”. For “QVQLVESGGGLVQAGGSLRLSCAASGSTFYPTYAMGWYRQAPGKERELVATITGSGGSTYYADSVKGRFTISRDNAKNTVYLQMNSLKPEDTAVYYCAADRWYSRYTRYGYWGQGTQVTVSS”, the “polyreactivity (PSR sort gate)” value was “low polyreactivity”. In the case of “QVQLVESGGGLVQAGGSLRLSCAASGITFGFNAMGWYRQAPGKERELVAAITWSVGRTYYADSVKGRFTISRDTAKNTVYLQMNSLKPEDTAVYYCAKDFEAGDDYFAYDYWGQGTQVTVSS”, the “polyreactivity (PSR sort gate)” value was “low polyreactivity”. In the case of “QVQLVESRGGLVQAGGSLRLSCAASGRTFWYKAMGWYRQAPGKERELVAAISKSAAITYYADSVKGRFTISRDNAKNTVYLQMNSLKPEDTAVYYCNAGVRAVNRKYDYWGQGTQVTVSS”, the “polyreactivity (PSR sort gate)” value was “high polyreactivity”. With “QVQLVESGGGLVQAGGSLRLSCAASGSTFRSYAMGWYRQAPGKERELVAAITWRGGSTDYADSVKGRFTISRDNAKNTVYLQMNSLKPEDTAVYYCAAAIWGDYGAYDYWGQGTQVTVSS” the “polyreactivity (PSR sort gate)” value was “low polyreactivity”. With “QVQLVESGGGLVQTGGSLRLSCAASGSTFEYNAMGWYRQAPGKERELVAAITWTGGSRYYADSVKGRFTISRDNAKNSVYFQMNSLKPEDTAVYYCNAVSYVDIWDDRRYYYWGQGTQVTVSS” the “polyreactivity (PSR sort gate)” value was “low polyreactivity”. In the case of “QVQLVESGGGLVQAGGSLRLSCAASGSIFLAKAMGWYRQAPGKERELVAAINYADSVKGRFTISRDNAKNTVYLQMNSLKPEDTAVYYCYSKYDYWGQGTQVTVSS”, the “polyreactivity (PSR sort gate)” value was “low polyreactivity”. With “QVQLVESGGRLVQAGGSLRLSCAASGSIFYSYAMGWYRQAPGKERELVAAISRSGVSTYYADSVKGRFTISRDNAKNTVYFQMNSLKPEDTAVYYCASPYFVSYQGYDYWGQGTQVTVSS” the “polyreactivity (PSR sort gate)” value was “high polyreactivity”. In the case of “QVQLVESGGGLVQAGGSLRLSCAASGSIFDYYAMGWYRQAPGKERELVSTYYADSVKGRFTISRDNAKNTVYLQMNSLKPEDTAVYYCAKDRGTTGIRDGPAASLYGYEYWGQGTQVTVSS”, the “polyreactivity (PSR sort gate)” value was “low polyreactivity”. With “QVQLVESGGGLVQAGGSLRLSCAASGSIFGPSAMGWYIQAPGKERDLVAGITRSVGSTYYADSVKGRFTISRDNAKNTVYLQMNSLKPEDTADYYCNAKWLYSRWAGYDYWGQGTQVTVSS” the “polyreactivity (PSR sort gate)” value was “low polyreactivity”. In the case of “QVQLVESGGGLVQAGGSLRLSCAASGSIFSPNDMGWYRQAPGKERELVAAITTAGSTYYADSVKGRFTISRDTAKNTVYLQMNSLKPEDTAVYYCAATYISVTDYAYFPLWYGYWGEGTQVTVSS”, the “polyreactivity (PSR sort gate)” value was “low polyreactivity”. With “QVQLVESGGGFVQAGGSLRLSCAASGRTFRWNAMGWYRQAPGKERELVAAISSGGSTYYADSVKGRFTISRDNAKNTVYLQMNSLKPEDTAVYYCAKTSFKYRWSYPVISMDYWGQATQVTVSS” the “polyreactivity (PSR sort gate)” value was “high polyreactivity”. With “QVQLVESGGGLVQAGGSLRLSCAASGRTYRYYAMGWYRQAPGKERELVAAITASTGRTYYADSVKGRFTISRDNAKNSVYLQMNRLKPEDTAVYYCDARQSSYRYPGSYEYWGQGTQVTVSS” the “polyreactivity (PSR sort gate)” value was “high polyreactivity”. In the case of “QVQLVESGGGLVQAGGSLRLSSAASGSTFTAYAMGWYRQAPGTERELVAAISRSRGRTYYADSVKGRFTISRDNAKYTVYLEMISLKPEDTAVLYCNARGGSDGDYWGQGTQVTVSS”, the “polyreactivity (PSR sort gate)” value was “high polyreactivity”. With “QVQLVESGGGLVQAGGSLRLSCAASGSIITPYTMGWDRQAPGKERELVAAISWSGATTHYADSVKGRFTISRDNAKNTVYLQMNSLKPEDTAVYYCAARWGLRSSRYYYWGQGTQVTVSS” the “polyreactivity (PSR sort gate)” value was “high polyreactivity”. For “QVQLVESGGGLDQAGGSLRLSCAASGRIFRYNAMVWYRQAPGKERELVASISGTSRTKYADSVKGRFTISRDNAKNTVYLQMNSLKPEDTAVYYCAARRYGWGRAQSSASYDHWGQGTQVTVSS”, the “polyreactivity (PSR sort gate)” value was “high polyreactivity”. In the case of “QVQLVESGGGLVQAGGSLRLRCAASGSIFGAYAMAWYRQAPGKERELVAAINSDISTNYADSVKGRFTISRDNAKNTVYFQMTSVKPEDTAVYYCGVDWPRIYLRYNYWGQGTAVTVSS”, the “polyreactivity (PSR sort gate)” value was “low polyreactivity”.
